In PMC3206353:

What was measured:
Settings in all cases: remark: other sources report otherwise
[1] = molecular target: T1, pyrene-labeled ADP-actin filaments (chicken breast muscle actin) (chicken), P68139; experiment: stopped-flow fluorescence kinetics
[2] = molecular target: Mg-ATP-actin monomer (chicken breast muscle actin) (chicken), P68139; experiment: inhibition of nucleotide exchange
[3] = molecular target: T1, pyrene-labeled ADP-actin filaments …; experiment: other fluorescence titration
[4] = molecular target: T1, pyrene-labeled ADP-actin filaments …; experiment: other fluorescence titration; remark: listed apart in the source

- kobs (3 µM cofilin, 1 µM filaments) [1]: 73.6 s⁻¹
- kon [1]: 1.25e+07 M⁻¹ s⁻¹
- Kd [2]: 80 nM
- Ka of the cooperative model (Kd = 1/(ω*Ka)) [3]: 0.15 µM⁻¹
- Kd [3]: 330 nM
- binding cooperativity ω [3]: 19.9
- Kd [4]: 340 nM
B1: wild-type fission yeast cofilin, P78929 1-137 (natural protein)
chain: MSFSGVKVSPECLEAFQELKLGKSLRYVVFKMNDTKTEIVVEKKSTDKDFDTFLGDLPEKDCRYAIYDFEFNLGEGVRNKIIFISWSPDVAPIKSKMVYSSSKDTLRRAFTGIGTDIQATDFSEVAYETVLEKVTRK
modifications: here or on the partner: pyrene (pyrene iodoacetamide) on cysteine-374
